Literature values in patent publication US6204360A, “Retro-inverso thymosin alpha 1 hybrids” (USA Universe Bioengineering, Inc., priority 1999, dated 2001).
No end group written: not given here.

Details: Rost, Int. J. Clin. Pharmacol. Ther. 37:51, 1999

Question: Which half-life in vivo does the source give for “thymosin alpha 1 (SDAAVDTSSEITTKDLKEKKEVVEEAEN; ends and bridges not checked; UniProt P06454 2-29, looked up) [TM-alpha1, 28 amino acid acidic peptide purified from thymosin fraction V; immunomodulator]” here?
Answer: short half-life in vivo
